Here are results for eight molecules from patent publication US20170240629A1 (Hoffmann-La Roche, published 2017).

In general, Kd refers to the equilibrium constant for the complex coming apart. A word on the koff: it is the first-order rate constant of dissociation. Usually kon stands for a measure of how fast the partners come together.

Like-named read-outs stand apart in the source and are kept apart here.

The target of test [1] is T1, human PDGF-BB (human, UniProt P01127 82-190). Kind of test: cell-based or functional assay.
T1 sequence (P01127 82-190 limits assumed): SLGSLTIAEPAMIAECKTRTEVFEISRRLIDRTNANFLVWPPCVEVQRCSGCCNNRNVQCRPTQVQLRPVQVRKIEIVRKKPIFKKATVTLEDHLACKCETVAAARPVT
The target of test [2] is T1, human PDGF-BB. Nature of the test: cell-based or functional assay. This is another data set of the same source.
Test [3] deals with T2, human IL-1beta (human, UniProt P01584 117-269). Nature of the test: SPR (BIAcore); antibody captured by anti-Fc, IL-1beta injected. In general terms: SPR reads the build-up and loss of mass on a sensor chip optically.
Test [4] addresses T3, cynomolgus IL-1beta (cynomolgus, UniProt P79182 117-268). Described as above.
In test [5] the target is T2, human IL-1beta. The description is as above. This is another data set of the same source.
Description: (§1) All experiments were performed at 25° C. using HBS-P (10 mM His, 140 mM NaCl, 0.05% Tween 20 pH 7.4) as running and dilution buffer. Anti-human or anti-mouse Fc antibodies were immobilized on a Series S CM5 Sensor Chip (GE Healthcare) using standard amine coupling chemistry. […] The dissociation phase was monitored for 600 sec by washing with running buffer. […] The surface was regenerated by injecting 3 M MgCl2 (for anti-human Fc antibody) or 10 mM Glycine pH 1.5 (for anti-mouse Fc antibody) for 60 sec at a flow rate of 5 μl/min. Bulk refractive index differences were corrected by subtracting the response obtained from a mock surface. Blank injections were subtracted (double referencing). The derived curves were fitted to a 1:1 Langmuir binding model using the BIAevaluation software.
In test [6] the target is T3, cynomolgus IL-1beta. Described as above. This is another data set of the same source.
Description: as §1
Test [7] deals with T4, ANG2 (UniProt O15123 68-496, limits assumed).
T4 sequence (looked up): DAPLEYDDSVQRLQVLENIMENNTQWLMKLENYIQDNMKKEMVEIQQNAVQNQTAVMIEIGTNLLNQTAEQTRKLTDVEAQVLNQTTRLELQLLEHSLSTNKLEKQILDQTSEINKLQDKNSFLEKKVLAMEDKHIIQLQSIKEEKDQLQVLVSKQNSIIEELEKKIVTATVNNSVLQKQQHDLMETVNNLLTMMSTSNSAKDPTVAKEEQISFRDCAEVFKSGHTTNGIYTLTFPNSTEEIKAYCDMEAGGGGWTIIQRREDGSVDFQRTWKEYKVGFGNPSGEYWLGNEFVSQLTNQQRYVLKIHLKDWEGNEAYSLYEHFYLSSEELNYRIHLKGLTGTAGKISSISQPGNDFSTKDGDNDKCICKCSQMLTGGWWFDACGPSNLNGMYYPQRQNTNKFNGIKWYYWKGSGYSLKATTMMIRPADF
Kind of test: cell-based or functional assay.

The target in test [8] is T5, human ANG2-RBD-mouse Fc-region fusion (human, UniProt O15123 275-496, limits assumed).
T5 construct: domain: RBD; also called human ANG2-RBD-murine Fc-region fusion; not shown: mouse Fc-region
T5 sequence (looked up): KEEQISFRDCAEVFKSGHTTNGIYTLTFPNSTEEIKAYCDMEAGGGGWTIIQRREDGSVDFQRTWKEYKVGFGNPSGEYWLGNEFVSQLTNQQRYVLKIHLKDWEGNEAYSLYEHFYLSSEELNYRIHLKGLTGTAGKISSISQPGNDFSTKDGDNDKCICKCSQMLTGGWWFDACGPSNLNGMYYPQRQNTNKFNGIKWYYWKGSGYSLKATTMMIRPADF
Kind of test: SPR (BIAcore T200); ANG2-RBD-mouse Fc captured, antibody injected (Example 52).

The target in test [9] is T1, human PDGF-BB. Nature of the test: SPR (BIAcore T200); PDGF-BB coupled on CM3 chip, antibody injected (Example 52). Also on record: t½: unit not given here.
In test [10] the target is T2, human IL-1beta. Kind of test: cell-based or functional assay.
Test [11] deals with T2, human IL-1beta. Nature of the test: cell-based or functional assay. This is another data set of the same source.
Test [12] deals with T2, human IL-1beta. Nature of the test: cell-based or functional assay. The source holds these as a separate data set.
The target in test [13] is T2, human IL-1beta. Kind of test: cell-based or functional assay. This is another data set of the same source.
The target of test [14] is T2, human IL-1beta. Kind of test: SPR (BIAcore T200); antibody captured by anti-human Fc, human IL-1beta injected (Example 52). On the set-up: t 1/2: unit not given here.
In test [15] the target is T2, human IL-1beta. Kind of test: SPR (BIAcore); Fab captured by anti-human Fab, IL-1beta injected (Example 55).
Description: All experiments were performed at 25° C. using HBS-P (10 mM His, 140 mM NaCl, 0.05% Tween 20 pH 7.4) as running and dilution buffer. Anti-human Fc or anti-human Fab antibodies were immobilized on a Series S CM5 Sensor Chip (GE Healthcare) using standard amine coupling chemistry. […] The dissociation phase was monitored for 600 sec by washing with running buffer. The surface was regenerated by injecting 3 M MgCl2 (for anti-human Fc antibody) or 10 mM Glycine pH 1.5 (for anti-mouse Fc antibody) for 60 sec at a flow rate of 5 μl/min. Bulk refractive index differences were corrected by subtracting the response obtained from a mock surface. Blank injections were subtracted (double referencing). The derived curves were fitted to a 1:1 Langmuir binding model using the BIAevaluation software.
For test [16], the target named is T2, human IL-1beta. Kind of test: cell-based or functional assay. The source holds these as a separate data set.

B1: antibody 0085 FAB (Fab, V domains shown)
VH: EVQLVESGGGLVQPGGSLRLSCAASGFTFSSYWMSWVRQAPEKGLEWVSTISDGGGLTYYADSVKGRFTISRDNAKNSLYLQMNSLRAEDTAVYYCAESGGYTDWLFGYWGQGTLVTVSS
VL: not shown
For the molecule B1, in test [1], the “IC50 Proliferation human pericytes” value was 0.012 nM. Further, the “IC50 Migration-Inhibition human pericytes” value in test [2] worked out at 0.27 nM.

B2: H34 + C52aS mutations (antibody, V domains shown)
VH: EVQLQQSGPELVKTGASVKISCKASGYSFTGYYMHWVKQSHGKSLEWIGYISSYNAFTTYNQRFRGKATFTVDTSSSTAYMQFNSLTSEDSAVYYCVRSDYYGTSLYWGQGTTLTVSS
VL: QIVLTQSPAIMSASLGEEITLTCSASSSVSYMHWSQQKSGSSPKLLIYSTSNLASGVPSRFSGSGSGTFYSLTISSVEAEDAADYYCHQWSNYYTFGGGTKLEIK
On to B2, for which the Kd in test [3] turned out to be 0.4 nM; in test [4], 0.51 nM; in test [5], 0.4 nM; in [6], 0.51 nM. For the same molecule, the koff in [3] came to 0.000645 s⁻¹; in [4] it was 0.000728 s⁻¹; in [5], 0.000645 s⁻¹; in test [6], 0.000728 s⁻¹. The kon in test [3] was 1.6e+06 M⁻¹ s⁻¹; in test [4], 1.43e+06 M⁻¹ s⁻¹; in test [5], 1.6e+06 M⁻¹ s⁻¹; in [6], 1.43e+06 M⁻¹ s⁻¹.

B3: antibody 0144 (bispecific antibody, human IgG1, kappa, L234A L235A)
chain 1: SYVLTQPPSVSVAPGQTARITCGGNNIGSKSVHWYQQKPGQAPVLVVYDTSDRPSGIPERFSGSNSGNTATLTISRVEAGDEADYYCQVWDSSSDHWVFGGGTKLTVLSSASTKGPSVFPLAPSSKSTSGGTAALGCLVKDYFPEPVTVSWNSGALTSGVHTFPAVLQSSGLYSLSSVVTVPSSSLGTQTYICNVNHKPSNTKVDKKVEPKSCDKTHTCPPCPAPEAAGGPSVFLFPPKPKDTLMASRTPEVTCVVVDVSHEDPEVKFNWYVDGVEVHNAKTKPREEQYNSTYRVVSVLTVLAQDWLNGKEYKCKVSNKALGAPIEKTISKAKGQPREPQVYTLPPCRDELTKNQVSLWCLVKGFYPSDIAVEWESNGQPENNYKTTPPVLDSDGSFFLYSKLTVDKSRWQQGNVFSCSVMHEALHNAYTQKSLSLSPGK
chain 2: not shown
chain 3: not shown
chain 4: not shown
notes: also called anti-PDGF-B/ANG2 antibody; clone 0144-0004
On to B3, for which the “ANG2 specific pTie2-ELISA, activity against the anti-ANG2/VEGF antibody reported in WO 2014/09465” value in test [7] was 6 fold. Also, in test [1], the “IC50 Proliferation 3T3” value is 0.02 nM and the “IC50 Proliferation human pericytes” value is 0.03 nM. Further, in [2], the “IC50 Migration-Inhibition human pericytes” value was 0.06 nM and the “IC50 Phospho-Inhibition human pericytes” value came out at 0.055 nM. In test [8], this molecule had a Kd of 17 nM, a koff of 0.00155 s⁻¹, a kon of 90600 M⁻¹ s⁻¹ and a t½ of 7.43 min. In [9], this molecule yielded a Kd of 3 nM, a koff of 0.000215 s⁻¹, a kon of 83100 M⁻¹ s⁻¹ and a t½ of 53.

B4: huH34-2 (antibody, V domains shown)
VH: QVQLVQSGAEVKKPGASVKVSCKASGYTFTGYYMHWVRQAPGQGLEWIGYISSYNAFTTYNQKFRGRATFTVDTSISTAYMELSRLRSDDTAVYYCVRSDYYGTSLYWGQGTLVTVSS
VL: EIVLTQSPATLSLSPGERATLSCRASSSVSYMHWSQQKPGQAPRLLIYSTSNLASGIPARFSGSGSGTDFTLTISSLEPEDFAVYYCHQWSNYYTFGQGTKLEIK
notes: Humanized antibody expressed in HEK cells; also called huH34-2 bivalent; humanized version of H34
On to B4, for which the “IC50, inhibition of ICAM-1 expression upon IL-1beta stimulation of A549 cells” value (from here on “IC50, inhibition … of A549 cells”) in test [10] stood at 0.23 nM. Also, in test [11], the “IC50, inhibition of ICAM-1 expression upon IL-1beta stimulation of HUVEC cells” value amounted to 0.3 nM. Moreover, in [12], the “EC50, reduction of IL-6 expression upon IL-1beta stimulation of A549 cells” value (shortened to “EC50, reduction”) turned out to be 0.11 nM. Further, the “IC50, inhibition of proliferation of D10 cells” value in [13] is 0.83 nM. Further, in test [5], binding was characterised by a dissociation constant (Kd) of 0.06 nM, the koff came out at 0.00011 s⁻¹ and the kon is 1.93e+06 M⁻¹ s⁻¹. In test [6], this molecule returned a Kd of 0.05 nM, a koff of 0.000118 s⁻¹ and a kon of 2.2e+06 M⁻¹ s⁻¹. Moreover, in [14], the Kd stood at 0.05 nM, the koff is 0.000115 s⁻¹, the kon turned out to be 2.43e+06 M⁻¹ s⁻¹ and the “t 1/2” value turned out to be 101.

B5: huH34-3 (antibody, V domains shown)
VH: QVQLVQSGAEVKKPGASVKVSCKASGYTFTGYYMHWVRQAPGQGLEWIGYISSYSAFTTYNQKFRGRATFTVDTSISTAYMELSRLRSDDTAVYYCVRSDYYGTSLYWGQGTLVTVSS
VL: EIVLTQSPATLSLSPGERATLSCRASSSVSYMHWSQQKPGQAPRLLIYSTSNLASGIPARFSGSGSGTDFTLTISSLEPEDFAVYYCHQWSNYYTFGQGTKLEIK
notes: VH = 11 and VL = 16 read by analogy with huH34-2
On to B5, for which the “IC50, inhibition … of A549 cells” value in [10] was 2.23 nM. Besides, the “EC50, reduction” value in test [12] is 1.09 nM. In [5], this molecule gave a Kd of 0.15 nM, a koff of 0.000302 s⁻¹ and a kon of 1.97e+06 M⁻¹ s⁻¹. Besides, in test [6], the Kd was 0.22 nM, the koff is 0.000491 s⁻¹ and the kon was 2.21e+06 M⁻¹ s⁻¹.

B6: huH34-2 Fab (Fab, V domains shown)
VH: QVQLVQSGAEVKKPGASVKVSCKASGYTFTGYYMHWVRQAPGQGLEWIGYISSYNAFTTYNQKFRGRATFTVDTSISTAYMELSRLRSDDTAVYYCVRSDYYGTSLYWGQGTLVTVSS
VL: EIVLTQSPATLSLSPGERATLSCRASSSVSYMHWSQQKPGQAPRLLIYSTSNLASGIPARFSGSGSGTDFTLTISSLEPEDFAVYYCHQWSNYYTFGQGTKLEIK
notes: also called huH34-2 Fab-fragment
For the molecule B6, in test [15], the Kd came out at 0.06 nM, the koff was 0.000111 s⁻¹ and the kon was found to be 1.81e+06 M⁻¹ s⁻¹.

B7: antibody 0032 (bispecific antibody, V domains shown)
VH 1: EVQLVESGGGLVQPGGSLRLSCAASGYDFTHYGMNWVRQAPGKGLEWVGWINTYTGEPTYAADFKRRFTFSLDTSKSTAYLQMNSLRAEDTAVYYCAKYPYYYGTSHWYFDVWGQGTLVTVSS
VL 1: DIQLTQSPSSLSASVGDRVTITCSASQDISNYLNWYQQKPGKAPKVLIYFTSSLHSGVPSRFSGSGSGTDFTLTISSLQPEDFATYYCQQYSTVPWTFGQGTKVEIK
VH 2: QVQLVQSGAEVKKPGASVKVSCKASGYTFTGYYMHWVRQAPGQGLEWIGYISSYNAFTTYNQKFRGRATFTVDTSISTAYMELSRLRSDDTAVYYCVRSDYYGTSLYWGQGTLVTVSS
VL 2: EIVLTQSPATLSLSPGERATLSCRASSSVSYMHWSQQKPGQAPRLLIYSTSNLASGIPARFSGSGSGTDFTLTISSLEPEDFAVYYCHQWSNYYTFGQGTKLEIK
notes: CrossMab; only variable domains are tied to it; also called anti-IL-1beta/VEGF antibody
As for B7, in test [16], the “EC50, reduction” value came to 0.0387 µg/mL. Besides, in test [14], the Kd came out at 0.12 nM, the koff was 0.000305 s⁻¹, the kon was determined as 2.49e+06 M⁻¹ s⁻¹ and the “t 1/2” value stood at 38.

B8: huH34-1 (antibody, V domains shown)
VH: QVQLVQSGAEVKKPGASVKVSCKASGYTFTGYYMHWVRQAPGQGLEWMGYISSYSGFTTYAQKFQGRVTMTRDTSISTAYMELSRLRSDDTAVYYCARSDYYGTSLYWGQGTLVTVSS
VL: EIVLTQSPATLSLSPGERATLSCRASSSVSYMHWSQQKPGQAPRLLIYSTSNLASGIPARFSGSGSGTDFTLTISSLEPEDFAVYYCHQWSNYYTFGQGTKLEIK
notes: VH = 01 and VL = 16 read by analogy with huH34-2 (VH 06, VL 16); Humanized
With B8, the “IC50, inhibition … of A549 cells” value in test [10] was over 7 nM. For the same molecule, the “EC50, reduction” value in test [12] was 5.52 nM. Besides, in test [5], the Kd was 1.02 nM, the koff is 0.00151 s⁻¹ and the kon was found to be 1.49e+06 M⁻¹ s⁻¹. Further, in test [6], the Kd worked out at 1.31 nM, the off-rate (koff) is 0.00212 s⁻¹ and the kon was 1.61e+06 M⁻¹ s⁻¹.
